From US5763271A, “Vasodilatory and immune suppressant peptides” (The President and Fellows of Harvard College, priority 1994, dated 1998)
Where no end group is shown, it is not given here.

Tests used:
human macrophages = assay: H2O2 production by IFN-γ activated macrophages (scopoletin fluorometric assay); type: cell-based; conditions: 3 hrs preincubation, IFN-γ 200 units/ml, 3 days
Description: Monocytes obtained by leukophoresis of healthy volunteers were purified on Ficoll-hypaque and Percoll (Pharmacia, Piscataway, N.J.) gradients and placed into microtiter well (5×10^5 /well) in RPMI-1640 (GIBCO, Grand Island, N.Y.) with 5% pooled normal human serum and 1% gentamycin (M. A. Bioproducts, Walkinville, Md.). The cells were greater than 95% macrophages as judged by esterase staining. […] After one day in culture, non-adherent cells were rinsed away and the macrophages were treated, e.g., with human CGRP, Calcitonin, or LP as described below. Following treatment, the macrophages were incubated for three days with a concentration of from 100 to 400 units interferon gamma (Amgen Biologicals, Thousand Oaks, Calif.), in medium with 15% pooled normal human serum, at which time the H2 O2 concentration in the cells was determined.
H2 O2 production by macrophages was determined by fluorometric assay using the fluorophore scopoletin (de la Harpe et al., J. Immunol. Methods 78: 323 (1985)). […] The amount of H2 O2 released per culture is determined as nanomoles H2 O2. […]
Human macrophage monolayers were pretreated for three hours with varying concentrations of human CGRP. […] The amount Of H2 O2 produced by the cells was then determined according to the above procedure. […]

RAW 264.7 cell line = assay: Inhibition of nitric oxide production by LPS-stimulated macrophages (Greiss reaction); type: cell-based; conditions: 10^6 to 10^1 pg/ml; LPS 1 μg/ml; nitrite 2 hours later
Description: Macrophage cells from the RAW 264.7 cell line (Drapier et al. (1988) J. Immunol. 140:2829) were preincubated with various concentrations of LP protein as indicated in FIG. 8. The cells were then stimulated with 1 μg/ml lipopolysaccharide […] (LPS) and NO production was monitored 2 hours later by measuring nitrite in the supernatants of the cultures. Nitrite was measured by the method described in Ding et al. (1988) J. Immunol. 141:2407. Briefly, levels of nitrite in the supernatants of the cultures were assessed by the Greiss reaction as follows. 50 μl cell culture supernatants were mixed with 50 μl of Greiss reagent [1% sulfanilamide, 0.1% N-(1-naphthyl)ethyl-enediamine dihydrochloride in 2.5% phosphoric acid] and incubated at room temperature for 10 minutes. Absorbance was measured at 570 nm. Concentration of NO2 in the supernatant was determined by comparison to a standard curve generated with dilutions of NaNO2.

Leishmania major = assay: Exacerbation of cutaneous leishmaniasis (footpad lesion size); type: in vivo, CBA mice; conditions: 80 pg admixed with 10^5 L. major promastigotes, subcutaneous
Description: In order to assay for immunosuppressive activity, the recombinant LP protein described in subsection A above was tested for the ability to exacerbate infection of mice with Leishmania major substantially as described in Titus et al. (1988) Science 239, 1306 and Theodos et al. (1991) Infect. Immun. 59, 1592-1598.
Briefly, groups of 4 CBA mice each were injected subcutaneously in the footpad with 10^5 L. major promastigotes alone or 10^5 parasites admixed with 80 pg of LP protein. Lesion development was followed by measuring the increase in thickness of the injected footpad compared to the thickness of the contralateral uninjected control footpad.

Molecule | inhibition of H2O2 production by macrophages (human macrophages) | NO production by macrophages preincubated with the protein (RAW 264.7 cell line) | effect on Leishmania infection (size of footpad lesions) (Leishmania major)
calcitonin (CGNLSTCMLGTYTQDFNKFHTFPQTAIGVGAP; ends and bridges not checked; cysteine pairing not given here; UniProt P01258 85-116, looked up) [neuropeptide derived from the same gene as CGRP, available commercially] | to a degree similar to that seen with CGRP |  | 
recombinant LP protein: LP protein, substantially the amino acid sequence of SEQ ID NO:4, expressed in E. coli as a polyHis fusion protein (protein, polyHis tag) MKYSLNNLHFLVDVAEGCDATCQFRKAIEDCRKKAHHSDVLQTSVQTTATFTSMDTSQLPGSGVFKECMKEKAKEFKAGK |  | significant decrease | greatly exacerbated
